Assay [1] addresses T1, recombinant human activated FVII (FVIIa) (human, UniProt P08709 61-212; P08709 213-466, ten glutamate residues of the Gla domain may be gamma-carboxylated).
T1 sequence 1: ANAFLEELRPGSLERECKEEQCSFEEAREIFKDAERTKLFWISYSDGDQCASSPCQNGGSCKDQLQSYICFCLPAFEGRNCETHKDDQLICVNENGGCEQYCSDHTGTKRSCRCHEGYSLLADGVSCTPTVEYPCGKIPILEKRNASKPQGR
T1 sequence 2: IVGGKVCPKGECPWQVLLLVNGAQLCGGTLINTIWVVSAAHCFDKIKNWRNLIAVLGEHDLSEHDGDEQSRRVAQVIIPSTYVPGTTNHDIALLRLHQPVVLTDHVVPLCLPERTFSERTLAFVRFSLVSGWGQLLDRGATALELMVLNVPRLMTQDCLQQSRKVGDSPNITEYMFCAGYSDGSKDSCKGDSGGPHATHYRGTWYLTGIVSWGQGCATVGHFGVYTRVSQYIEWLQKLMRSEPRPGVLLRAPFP
Nature of the assay: cell-based or functional assay.

The target in assay [2] is T2, sTLT1 (SEQ ID No: 3 with six histidine residues added at the C-terminus) (human, UniProt Q86YW5 16-162).
T2 construct: Soluble TLT-1 used in SPR
T2 sequence: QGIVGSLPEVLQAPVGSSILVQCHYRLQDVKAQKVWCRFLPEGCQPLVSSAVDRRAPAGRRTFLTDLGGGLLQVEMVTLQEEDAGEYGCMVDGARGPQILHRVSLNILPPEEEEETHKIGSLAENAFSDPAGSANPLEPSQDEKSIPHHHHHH
Nature of the assay: dissociation constant listed with the stimulatory activities; value of the anti-TLT-1 arm.

Assay [3] has as its target T1, recombinant human activated FVII (FVIIa). Nature of the assay: dissociation constant listed with the stimulatory activities; value of the anti-FVII(a) arm mAb0873.

B1: biAb0099 (bispecific antibody, human IgG4 S228P, kappa)
heavy 1: DVQLQESGPGLVKPSQTLSLTCTVSGYSISSDSAWSWIRQPPGKGLEWIGYIQYSGSTNYNPSLKSRVTISRDTSKNQFSLKLSSVTAADTAVYYCARSVNYYGNSFWVDPWGQGTLVTVSSASTKGPSVFPLAPCSRSTSESTAALGCLVKDYFPEPVTVSWNSGALTSGVHTFPAVLQSSGLYSLSSVVTVPSSSLGTKTYTCNVDHKPSNTKVDKRVESKYGPPCPPCPAPEFLGGPSVFLFPPKPKDTLMISRTPEVTCVVVDVSQEDPEVQFNWYVDGVEVHNAKTKPREEQFNSTYRVVSVLTVLHQDWLNGKEYKCKVSNKGLPSSIEKTISKAKGQPREPQVYTLPPSQEEMTKNQVSLTCLVKGFYPSDIAVEWESNGQPENNYKTTPPVLDSDGSFLLYSKLTVDKSRWQEGNVFSCSVMHEALHNHYTQKSLSLSLGK
light 1: DIVMTQSPATLSVTAGDRVSLSCRASQGISDYLHWYQQKSHESPRLLIKYTSQPVSGIPSRFSGSGSGSEFTLSINSVEPEDVGVYYCQNGHSFPLTFGAGTKLELKRTVAAPSVFIFPPSDEQLKSGTASVVCLLNNFYPREAKVQWKVDNALQSGNSQESVTEQDSKDSTYSLSSTLTLSKADYEKHKVYACEVTHQGLSSPVTKSFNRGEC
heavy 2: not shown
light 2: DIVMTQTPLSSPVTLGQPASISCRSSQSLVHRNGNTYFHWLQQRPGQPPRLLIYKVSNRFSGVPDRFSGSGAGTDFTLKISRVEAEDVGVYYCSQSTHVPYTFGQGTKLEIKRTVAAPSVFIFPPSDEQLKSGTASVVCLLNNFYPREAKVQWKVDNALQSGNSQESVTEQDSKDSTYSLSSTLTLSKADYEKHKVYACEVTHQGLSSPVTKSFNRGEC
notes: Duobody, constant domain type H (IgG4): anti-FVII(a) arm mAb0873, anti-TLT-1 arm mAb1047; also called mAb0873 x mAb1047
In the case of B1, in assay [1], the “Stimulation (fold): FXa generated by FVIIa with lipidated TLT-1 and 100 nM biAb, relative to free FVIIa” value (“Stimulation (fold) … relative to free FVIIa” for short) stood at 5.8 fold. Moreover, the Kd (as a rule, the constant that tells how readily two partners part at equilibrium) in assay [2] was determined as 75 nM; in assay [3], 600 nM.

B2: biAb0094 (bispecific antibody, human IgG4 S228P, kappa)
heavy 1: DVQLQESGPGLVKPSQTLSLTCTVSGYSISSDSAWSWIRQPPGKGLEWIGYIQYSGSTNYNPSLKSRVTISRDTSKNQFSLKLSSVTAADTAVYYCARSVNYYGNSFWVDPWGQGTLVTVSSASTKGPSVFPLAPCSRSTSESTAALGCLVKDYFPEPVTVSWNSGALTSGVHTFPAVLQSSGLYSLSSVVTVPSSSLGTKTYTCNVDHKPSNTKVDKRVESKYGPPCPPCPAPEFLGGPSVFLFPPKPKDTLMISRTPEVTCVVVDVSQEDPEVQFNWYVDGVEVHNAKTKPREEQFNSTYRVVSVLTVLHQDWLNGKEYKCKVSNKGLPSSIEKTISKAKGQPREPQVYTLPPSQEEMTKNQVSLTCLVKGFYPSDIAVEWESNGQPENNYKTTPPVLDSDGSFLLYSKLTVDKSRWQEGNVFSCSVMHEALHNHYTQKSLSLSLGK
light 1: DIVMTQSPATLSVTAGDRVSLSCRASQGISDYLHWYQQKSHESPRLLIKYTSQPVSGIPSRFSGSGSGSEFTLSINSVEPEDVGVYYCQNGHSFPLTFGAGTKLELKRTVAAPSVFIFPPSDEQLKSGTASVVCLLNNFYPREAKVQWKVDNALQSGNSQESVTEQDSKDSTYSLSSTLTLSKADYEKHKVYACEVTHQGLSSPVTKSFNRGEC
heavy 2: not shown
light 2: DIVMTQTPLSSPVTLGQPASISCRSSQSLVHRNGNTYFHWLQQRPGQPPRLLIYKVSNRFSGVPDRFSGSGAGTDFTLKISRVEAEDVGVYYCSQSTHVPYTFGQGTKLEIKRTVAAPSVFIFPPSDEQLKSGTASVVCLLNNFYPREAKVQWKVDNALQSGNSQESVTEQDSKDSTYSLSSTLTLSKADYEKHKVYACEVTHQGLSSPVTKSFNRGEC
notes: Duobody, constant domain type H (IgG4): anti-FVII(a) arm mAb0873, anti-TLT-1 arm mAb1049; also called mAb0873 x mAb1049
With B2, the “Stimulation (fold) … relative to free FVIIa” value in assay [1] is 5.4 fold. The dissociation constant (Kd) in assay [2] came out at 320 nM; in assay [3] it was 600 nM.

B3: biAb0014 (bispecific antibody, human IgG4 S228P, kappa)
heavy 1: DVQLQESGPGLVKPSQTLSLTCTVSGYSISSDSAWSWIRQPPGKGLEWIGYIQYSGSTNYNPSLKSRVTISRDTSKNQFSLKLSSVTAADTAVYYCARSVNYYGNSFWVDPWGQGTLVTVSSASTKGPSVFPLAPCSRSTSESTAALGCLVKDYFPEPVTVSWNSGALTSGVHTFPAVLQSSGLYSLSSVVTVPSSSLGTKTYTCNVDHKPSNTKVDKRVESKYGPPCPPCPAPEFLGGPSVFLFPPKPKDTLMISRTPEVTCVVVDVSQEDPEVQFNWYVDGVEVHNAKTKPREEQFNSTYRVVSVLTVLHQDWLNGKEYKCKVSNKGLPSSIEKTISKAKGQPREPQVYTLPPSQEEMTKNQVSLTCLVKGFYPSDIAVEWESNGQPENNYKTTPPVLDSDGSFLLYSKLTVDKSRWQEGNVFSCSVMHEALHNHYTQKSLSLSLGK
light 1: DIVMTQSPATLSVTAGDRVSLSCRASQGISDYLHWYQQKSHESPRLLIKYTSQPVSGIPSRFSGSGSGSEFTLSINSVEPEDVGVYYCQNGHSFPLTFGAGTKLELKRTVAAPSVFIFPPSDEQLKSGTASVVCLLNNFYPREAKVQWKVDNALQSGNSQESVTEQDSKDSTYSLSSTLTLSKADYEKHKVYACEVTHQGLSSPVTKSFNRGEC
heavy 2: not shown
light 2: DIVMTQTPLSSPVTLGQPASISCRSSQSLVHRQGNTYFHWLQQRPGQPPRLLIYKVSNRFSGVPDRFSGSGAGTDFTLKISRVEAEDVGVYYCSQSTHVPYTFGQGTKLEIKRTVAAPSVFIFPPSDEQLKSGTASVVCLLNNFYPREAKVQWKVDNALQSGNSQESVTEQDSKDSTYSLSSTLTLSKADYEKHKVYACEVTHQGLSSPVTKSFNRGEC
notes: also called mAb0873 x mAb1076
B3: the “Stimulation (fold) … relative to free FVIIa” value in assay [1] was determined as 8 fold. Also, the results for the Kd in assay [2] and in assay [3] were 2.9 nM and 600 nM, respectively.

B4: biAb0019 (bispecific antibody, human IgG4 S228P, kappa)
heavy 1: DVQLQESGPGLVKPSQTLSLTCTVSGYSISSDSAWSWIRQPPGKGLEWIGYIQYSGSTNYNPSLKSRVTISRDTSKNQFSLKLSSVTAADTAVYYCARSVNYYGNSFWVDPWGQGTLVTVSSASTKGPSVFPLAPCSRSTSESTAALGCLVKDYFPEPVTVSWNSGALTSGVHTFPAVLQSSGLYSLSSVVTVPSSSLGTKTYTCNVDHKPSNTKVDKRVESKYGPPCPPCPAPEFLGGPSVFLFPPKPKDTLMISRTPEVTCVVVDVSQEDPEVQFNWYVDGVEVHNAKTKPREEQFNSTYRVVSVLTVLHQDWLNGKEYKCKVSNKGLPSSIEKTISKAKGQPREPQVYTLPPSQEEMTKNQVSLTCLVKGFYPSDIAVEWESNGQPENNYKTTPPVLDSDGSFLLYSKLTVDKSRWQEGNVFSCSVMHEALHNHYTQKSLSLSLGK
light 1: DIVMTQSPATLSVTAGDRVSLSCRASQGISDYLHWYQQKSHESPRLLIKYTSQPVSGIPSRFSGSGSGSEFTLSINSVEPEDVGVYYCQNGHSFPLTFGAGTKLELKRTVAAPSVFIFPPSDEQLKSGTASVVCLLNNFYPREAKVQWKVDNALQSGNSQESVTEQDSKDSTYSLSSTLTLSKADYEKHKVYACEVTHQGLSSPVTKSFNRGEC
heavy 2: not shown
light 2: DIVMTQTPLSSPVTLGQPASISCRSSQSLVHRPGNTYFHWLQQRPGQPPRLLIYKVSNRFSGVPDRFSGSGAGTDFTLKISRVEAEDVGVYYCSQSTHVPYTFGQGTKLEIKRTVAAPSVFIFPPSDEQLKSGTASVVCLLNNFYPREAKVQWKVDNALQSGNSQESVTEQDSKDSTYSLSSTLTLSKADYEKHKVYACEVTHQGLSSPVTKSFNRGEC
notes: also called mAb0873 x mAb1038
Regarding B4, the “Stimulation (fold) … relative to free FVIIa” value in assay [1] was found to be 9.4 fold. In addition, the Kd worked out at 19 nM in assay [2] and 600 nM in assay [3].

These data come from patent US20220064329A1 (Novo Nordisk, published 2022).
